Patent US8138140B2, “Self-assembling peptide amphiphiles and related methods for growth factor delivery” (Northwestern University, priority 2003, dated 2012)
Ends that are not written are not given here. Peptide text beside a SMILES is read from it. * marks the point of attachment. Palmitoyl = CCCCCCCCCCCCCCCC(=O)*; NH(CH2)11CH3 = CCCCCCCCCCCCN*

target: T1, rh-BMP-2 (Homo sapiens, UniProt P12643); test: ELISA screening of phage display clones, relative binding strengths; design: key to relative binding strength of selected clone (numeric coding): highest (1); 2: in decreasing binding strength from highest (1) to lowest (4); 3: in decreasing binding strength from highest (1) to lowest (4); lowest (4); conditions: BMP-2 coated plates, ELISA
T1 construct: purchased Peprotech
T1 sequence (P12643 283-396): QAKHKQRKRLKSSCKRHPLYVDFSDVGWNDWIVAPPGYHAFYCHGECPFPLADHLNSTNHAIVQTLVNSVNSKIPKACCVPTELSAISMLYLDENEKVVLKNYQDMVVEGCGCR
Description: (§1) Phage display is typically used to find receptor-blocking peptides, i.e. sequences with high binding constants. To transfer a growth factor from the PA binding site to the cell receptor, an extremely high binding constant is not required and might even be unfavorable. Therefore, the 7-mer commercial phage library was elected over the […], aiming at intermediate binding strengths. Growth factors were physisorbed onto 96-well plates and subsequently exposed to the phage library. After incubation at room temperature for 60 minutes, the unbound phage was removed by rinsing with detergent solution. Bound phage was subsequently eluted by incubating with a growth factor solution for 60 minutes. The recovered phages were amplified for 4 h in E Coli at 37° C. and the panning was repeated two more times. In subsequent panning rounds, the stringency was increased by raising the detergent concentration and reducing the exposure time to the library. The final phage population was plated and the DNA of 10 clones of colonies containing only one phage type were sequenced. Next, ELISA screening was used to test for false positives and determine relative binding strengths of the selected clones. […] (See Table 1, below.)
(§2) Phage display was performed with the Ph.D. 7 kit (New England […]). Fifty microliters of diluted M13-phage library (containing 2×10^9 phages and all possible 7-mer sequences) were added to 96-well microtiter plates, which had been exposed to 50 μl 10 μg/ml growth factor (peprotech) solution for 18 h at 0° C. The plates were blocked for 1 h then incubated at room temperature for 60 minutes with gentle agitation. Unbound phage was removed by rinsing with TBS/Tween-20 (0.1% v/v Tween-20). Bound phage was subsequently eluted by incubating with 50 μl growth factor solution for 60 minutes. The presence of binding phage was determined by serial dilution of the phages and subsequent plating with E. Coli on agar plates. The number of plaques formed can be related to the number of phages in the original mixture. The phages were subsequently amplified for 4 h in E. Coli at 37° C. In subsequent panning rounds, the concentration of Tween-20 was raised to 0.5% and the binding and elution times were decreased and increased, respectively, to increase the stringency of the selection process. After three rounds of panning, the recovered phage mixture is diluted and plated with bacteria on agar. Subsequently, plaques are isolated containing a single DNA sequence. After purification, ten clones were sequenced. Next, ELISA screening was used to eliminate false positives and determine relative binding strengths of the selected clones. Each clone was incubated for 1 h on growth factor coated microtiter plates, the plates were rinsed with TBS/Tween-20 and subsequently HRP-conjugated anti-M13 antibody (Amersham Biosciences) was incubated for 1 h. After addition of ABTS, the absorbance at 450 nm was measured after 30 minutes to determine the relative binding strengths of the isolated clones. The strongest binder was subsequently selected.

Row | Compound | relative binding strength of selected clone (numeric coding)
1 | YPVHPST | YPVHPST (1)
2 | DVSPAYH | DVSPAYH (3)
3 | QQTQAQH | QQTQAQH (4)
4 | PGPTVQG | PGPTVQG (2)
5 | PIQPDER | PIQPDER (2)
6 | PFDPPVR | PFDPPVR (2)
7 | LHYPFMT | LHYPFMT (3)
8 | KQALTQT | KQALTQT (3)
9 | WPALFTH | WPALFTH (3)
10 | KVPPANT | KVPPANT (3)

same assay, conditions: phage display and ELISA screening

Row | Compound | binding to BMP-2 (in words)
11 | YPVHPST | best binding epitope

target: T2, rh-TGF-β1 (Homo sapiens, UniProt P01137); test: as above; design: key to relative binding strength of selected clone (numeric coding): highest (1); 2: in decreasing binding strength from highest (1) to lowest (4); 3: in decreasing binding strength from highest (1) to lowest (4); lowest (4); conditions: TGF-β1 coated plates, ELISA
T2 construct: purchased Peprotech
Description: as §1, §2

T2 sequence (P01137 279-390 limits assumed): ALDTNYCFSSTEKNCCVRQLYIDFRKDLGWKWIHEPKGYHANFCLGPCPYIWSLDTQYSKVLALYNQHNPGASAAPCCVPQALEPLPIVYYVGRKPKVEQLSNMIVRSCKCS

Row | Compound | relative binding strength of selected clone (numeric coding)
12 | LPSPIQK | LPSPIQK (2)
13 | VYRHLPT | VYRHLPT (2)
14 | PAPRWIH | PAPRWIH (3)
15 | RVSTWDT | RVSTWDT (3)
16 | AWKSVTA | AWKSVTA (3)
17 | LPLGNSH | LPLGNSH (1)
18 | LRNYSHS | LRNYSHS (3)
19 | GKYPPTS | GKYPPTS (3)
20 | RTTSPTA | RTTSPTA (3)

same assay, conditions: phage display and ELISA screening

Row | Compound | binding to TGF-β1 (in words)
21 | LPLGNSH | best binding epitope

system: not listed separately; test: Acid-base (pKa) titrations of PA aggregates; conditions: 3 mM, aggregated state
Protocol: Acid-Base titrations. pKa titrations were preformed on PAs 1-4 in the range of pH 2-10 with a Fisher Accumet pH meter at a concentration of 3.5 mg/mL in 100 mM KCl. For the acidic PAs 2 and 4, 0.1N KOH was added in 1-5 μL increments, starting at low pH, whereas for the basic PAs 1 and 3, 0.1N HCl was added in 1-5 μL increments, starting at a high pH.
pKa titrations of aggregates of molecules 1-4 were carried out at a concentration of 3 mM. All titrations were started at a pH where the molecules were already in their aggregated state in order to avoid kinetic effects due to self-assembly.

Row | Compound | apparent pKa of aggregates (titration curve)
22 | CCCCCCCCCCCCCCCC(=O)N[C@H](C(=O)N[C@H](C(=O)N[C@H](C(=O)N[C@@H](C)C(=O)N[C@@H](C)C(=O)N[C@@H](C)C(=O)N[C@@H](CCC(=O)O)C(=O)N[C@@H](CCC(=O)O)C(=O)N[C@@H](CCC(=O)O)C(=O)O)C(C)C)C(C)C)C(C)C [PA 2] (Palmitoyl-VVVAAAEEE-OH) | complex curves with transitions occurring over wide ranges
23 | Asp(CONHC12)-Val-Val-Val-Ala-Ala-Ala-Glu-Glu-Glu-NH2 (D(NH(CH2)11CH3)VVVAAAEEE-NH2; N-terminus assumed; SMILES CCCCCCCCCCCCNC(=O)C[C@H](N)C(=O)N[C@H](C(=O)N[C@H](C(=O)N[C@H](C(=O)N[C@@H](C)C(=O)N[C@@H](C)C(=O)N[C@@H](C)C(=O)N[C@@H](CCC(=O)O)C(=O)N[C@@H](CCC(=O)O)C(=O)N[C@@H](CCC(=O)O)C(N)=O)C(C)C)C(C)C)C(C)C) [PA 4] | complex curves with transitions occurring over wide ranges

system: mesenchymal stem cells; test: Mesenchymal stem cells cultured in PA gels with TGF-β1, lineage markers; type: cell-based, Human; conditions: TGF-β1 up to 20 ng/ml, 10 days

Row | Compound | Collagen II expression | α-smooth muscle actin expression
24 | Asp(CONHC12)-Val-Val-Val-Ala-Ala-Ala-Lys-Lys-Lys-Ser-Gly-Gly-G-ly-Leu-Pro-Leu-Gly-Gln-Ser-His-NH2 [PA 10] | higher for the binding gels | higher in the binding gels than in the nonbinding gels

system: laminin-5; test: Phage display binding sequences; design: key: * denotes the strongest binders; conditions: not given
Protocol: (§3) Numerous binding sequences were determined for vascular endothelial growth factor (VEGF), both with 7- and 12-mer phage display kit, basic fibroblast growth factor (FGF-2), neurotrophin-3 (NT-3) and laminin-5; * denotes the strongest binders: […]

Row | Compound | strongest binders
25 | RYHPHLH | RYHPHLH*

system: vascular endothelial growth factor (VEGF); test: Phage display binding sequences (12-mer kit); design: key: * denotes the strongest binders; conditions: 12-mer phage display kit
Protocol: as §3

Row | Compound | strongest binders
26 | PLTPSALLPIFE | PLTPSALLPIFE*
27 | PTPLKVRLHSYN | PTPLKVRLHSYN*
28 | VSILSTIPNSMT | VSILSTIPNSMT*
